In the supplement of paper PMC12338614:
± gives the uncertainty stated by the source.

B1: library; numbered along this chain (parent)
chain: MEVVDPQQLGMFTEGELMSVGMDTFIHRIDSTEVIYQPRRKRAKLIGKYLMGDLLGEGSYGKVKEVLDSETLCRRAVKILKKKKLRRIPNGEANVKKEIQLLRRLRHKNVIQLVDVLYNEEKQKMYMVMEYCVCGMQEMLDSVPEKRFPVCQAHGYFCQLIDGLEYLHSQGIVHKDIKPGNLLLTTGGTLKISDLGVAEALHPFAADDTCRTSQGSPAFQPPEIANGLDTFSGFKVDIWSAGVTLYNITTGLYPFEGDNIYKLFENIGKGSYAIPGDCGPPLSDLLKGMLEYEPAKRFSIRQIRQHSWFRKKHPPAEAPVPIPPSPDTKDRWRSMTVVPYLEDLHGADEDEDLFDIEDDIIYTQDFTVPGQVPEEEASHNGQRRGLPKAVCMNGTEAAQLSTKSRAEGRAPNPARKACSASSKIRRLSACKQQ

Variants of: B1
Experiment: STK11 functional score (HeLa growth suppression), rescaled enrichment; synonymous median = 1, nonsense median = 0 (normalised score)
Settings: with HeLa; variant type: missense
Method: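 Deep mutational scan (TileSeq/POPCode codon randomisation) of full-length codon-optimised STK11 cDNA integrated at a Bxb1 landing pad (AAVS1) in HeLa cells. Restoring functional STK11 suppresses HeLa proliferation. Variant frequencies were measured by NGS before and after about two weeks of growth. The error-corrected enrichment log-ratio was rescaled so that synonymous median = 1 and nonsense median = 0, scores above 1 were compressed, and codon-level and three biological replicate scores were combined; error is the bootstrapped standard error. Scale: synonymous median = 1, nonsense median = 0; below 0.5 = damaging.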

First: MEVVDPQQLGMFTEGELMSVGMDTFIHRIDSTEVIYQPRRKRAKLIGKYLMGDLLGEGSYGKVKEELDSETLCRRAVKILKKKKLRRIPNGEANVKKEIQLLRRLRHKNVIQLVDVLYNEEKQKMYMVMEYCVCGMQEMLDSVPEKRFPVCQAHGYFCQLIDGLEYLHSQGIVHKDIKPGNLLLTTGGTLKISDLGVAEALHPFAADDTCRTSQGSPAFQPPEIANGLDTFSGFKVDIWSAGVTLYNITTGLYPFEGDNIYKLFENIGKGSYAIPGDCGPPLSDLLKGMLEYEPAKRFSIRQIRQHSWFRKKHPPAEAPVPIPPSPDTKDRWRSMTVVPYLEDLHGADEDEDLFDIEDDIIYTQDFTVPGQVPEEEASHNGQRRGLPKAVCMNGTEAAQLSTKSRAEGRAPNPARKACSASSKIRRLSACKQQ [V66E]
Second: MEVVDPQQLGMFTEGELMSVGMDTFIHRIDSTEVIYQPRRKRAKLIGKYLMGDLLGEGSYGKVKEALDSETLCRRAVKILKKKKLRRIPNGEANVKKEIQLLRRLRHKNVIQLVDVLYNEEKQKMYMVMEYCVCGMQEMLDSVPEKRFPVCQAHGYFCQLIDGLEYLHSQGIVHKDIKPGNLLLTTGGTLKISDLGVAEALHPFAADDTCRTSQGSPAFQPPEIANGLDTFSGFKVDIWSAGVTLYNITTGLYPFEGDNIYKLFENIGKGSYAIPGDCGPPLSDLLKGMLEYEPAKRFSIRQIRQHSWFRKKHPPAEAPVPIPPSPDTKDRWRSMTVVPYLEDLHGADEDEDLFDIEDDIIYTQDFTVPGQVPEEEASHNGQRRGLPKAVCMNGTEAAQLSTKSRAEGRAPNPARKACSASSKIRRLSACKQQ [V66A]
The STK11 functional score of the first is lower: 0.0829 ± 0.36 for the first, 1.4 ± 0.092 for the second.

Compared with MEVVDPQQLGMFTEGELMSVGMDTFIHRIDSTEVIYQPRRKRAKLIGKYLMGDLLGEGSYGKVKECLDSETLCRRAVKILKKKKLRRIPNGEANVKKEIQLLRRLRHKNVIQLVDVLYNEEKQKMYMVMEYCVCGMQEMLDSVPEKRFPVCQAHGYFCQLIDGLEYLHSQGIVHKDIKPGNLLLTTGGTLKISDLGVAEALHPFAADDTCRTSQGSPAFQPPEIANGLDTFSGFKVDIWSAGVTLYNITTGLYPFEGDNIYKLFENIGKGSYAIPGDCGPPLSDLLKGMLEYEPAKRFSIRQIRQHSWFRKKHPPAEAPVPIPPSPDTKDRWRSMTVVPYLEDLHGADEDEDLFDIEDDIIYTQDFTVPGQVPEEEASHNGQRRGLPKAVCMNGTEAAQLSTKSRAEGRAPNPARKACSASSKIRRLSACKQQ [V66C], MEVVDPQQLGMFTEGELMSVGMDTFIHRIDSTEVIYQPRRKRAKLIGKYLMGDLLGEGSYGKVKEFLDSETLCRRAVKILKKKKLRRIPNGEANVKKEIQLLRRLRHKNVIQLVDVLYNEEKQKMYMVMEYCVCGMQEMLDSVPEKRFPVCQAHGYFCQLIDGLEYLHSQGIVHKDIKPGNLLLTTGGTLKISDLGVAEALHPFAADDTCRTSQGSPAFQPPEIANGLDTFSGFKVDIWSAGVTLYNITTGLYPFEGDNIYKLFENIGKGSYAIPGDCGPPLSDLLKGMLEYEPAKRFSIRQIRQHSWFRKKHPPAEAPVPIPPSPDTKDRWRSMTVVPYLEDLHGADEDEDLFDIEDDIIYTQDFTVPGQVPEEEASHNGQRRGLPKAVCMNGTEAAQLSTKSRAEGRAPNPARKACSASSKIRRLSACKQQ [V66F] is lower in STK11 functional score: 1.46 ± 0.32 for the first, 0.608 ± 0.089 for the second.

Compared with MEVVDPQQLGMFTEGELMSVGMDTFIHRIDSTEVIYQPRRKRAKLIGKYLMGDLLGEGSYGKVKEDLDSETLCRRAVKILKKKKLRRIPNGEANVKKEIQLLRRLRHKNVIQLVDVLYNEEKQKMYMVMEYCVCGMQEMLDSVPEKRFPVCQAHGYFCQLIDGLEYLHSQGIVHKDIKPGNLLLTTGGTLKISDLGVAEALHPFAADDTCRTSQGSPAFQPPEIANGLDTFSGFKVDIWSAGVTLYNITTGLYPFEGDNIYKLFENIGKGSYAIPGDCGPPLSDLLKGMLEYEPAKRFSIRQIRQHSWFRKKHPPAEAPVPIPPSPDTKDRWRSMTVVPYLEDLHGADEDEDLFDIEDDIIYTQDFTVPGQVPEEEASHNGQRRGLPKAVCMNGTEAAQLSTKSRAEGRAPNPARKACSASSKIRRLSACKQQ [V66D], MEVVDPQQLGMFTEGELMSVGMDTFIHRIDSTEVIYQPRRKRAKLIGKYLMGDLLGEGSYGKVKYVLDSETLCRRAVKILKKKKLRRIPNGEANVKKEIQLLRRLRHKNVIQLVDVLYNEEKQKMYMVMEYCVCGMQEMLDSVPEKRFPVCQAHGYFCQLIDGLEYLHSQGIVHKDIKPGNLLLTTGGTLKISDLGVAEALHPFAADDTCRTSQGSPAFQPPEIANGLDTFSGFKVDIWSAGVTLYNITTGLYPFEGDNIYKLFENIGKGSYAIPGDCGPPLSDLLKGMLEYEPAKRFSIRQIRQHSWFRKKHPPAEAPVPIPPSPDTKDRWRSMTVVPYLEDLHGADEDEDLFDIEDDIIYTQDFTVPGQVPEEEASHNGQRRGLPKAVCMNGTEAAQLSTKSRAEGRAPNPARKACSASSKIRRLSACKQQ [E65Y] is higher in STK11 functional score: 0.0679 ± 0.17 for the first, 1.05 ± 0.095 for the second.

For MEVVDPQQLGMFTEGELMSVGMDTFIHRIDSTEVIYQPRRKRAKLIGKYLMGDLLGEGSYGKVKWVLDSETLCRRAVKILKKKKLRRIPNGEANVKKEIQLLRRLRHKNVIQLVDVLYNEEKQKMYMVMEYCVCGMQEMLDSVPEKRFPVCQAHGYFCQLIDGLEYLHSQGIVHKDIKPGNLLLTTGGTLKISDLGVAEALHPFAADDTCRTSQGSPAFQPPEIANGLDTFSGFKVDIWSAGVTLYNITTGLYPFEGDNIYKLFENIGKGSYAIPGDCGPPLSDLLKGMLEYEPAKRFSIRQIRQHSWFRKKHPPAEAPVPIPPSPDTKDRWRSMTVVPYLEDLHGADEDEDLFDIEDDIIYTQDFTVPGQVPEEEASHNGQRRGLPKAVCMNGTEAAQLSTKSRAEGRAPNPARKACSASSKIRRLSACKQQ [E65W], the STK11 functional score was 1.36 ± 0.12.
